Test results as given in PMC10043283, “Neuraminidase 1 promotes renal fibrosis development in male mice” (Nature Communications, 2023).

Target: T1, Human NEU1 recombinant protein (human, UniProt Q99519 48-415)
T1 construct: human neuraminidase 1 (NEU1), recombinant; Amine-coupled to a CM5 chip; also called recombinant human NEU1; source: recombinant protein, gifted by Dr. Xiao Yibei lab
Assay: SPR; Biacore T200, 25 °C, HBS-EP+ pH 7.4; human NEU1 amine-coupled to CM5 chip (8000–10,000 RU); ALK5 recombinant proteins flowed at 7.80–500 nM; 1:1 binding model
Conditions: both partners purified

B1: human ALK5_(162-403aa) recombinant protein (domain or fragment, UniProt P36897 162-403, looked up)
chain: EDPSLDRPFISEGTTLKDLIYDMTTSGSGSGLPLLVQRTIARTIVLQESIGKGRFGEVWRGKWRGEEVAVKIFSSREERSWFREAEIYQTVMLRHENILGFIAADNKDNGTWTQLWLVSDYHEHGSLFDYLNRYTVTVEGMIKLALSTASGLAHLHMEIVGTQGKPAIAHRDLKSKNILVKKNGTCCIADLGLAVRHDSATDTIDIAPNHRVGTKRYMAPEVLDDSINMKHFESFKRADIYA
notes: human ALK5 (TGFβ type I receptor), amino acids 162-403; also called amino acid 162–403 region of ALK5; source: bought: Sino Biological Inc
- Kd: 3.14 nM
